Key:
[1] = biological target: T1, human galectin-10 as coated in ELISA (soluble galectin-10; tag not given) (human, UniProt Q05315 1-142, limits assumed); assay: ELISA, scFv periplasmic extract on coated soluble galectin-10, anti-Myc-HRP
T1 construct: also called coated galectin-10; Gal10
T1 sequence: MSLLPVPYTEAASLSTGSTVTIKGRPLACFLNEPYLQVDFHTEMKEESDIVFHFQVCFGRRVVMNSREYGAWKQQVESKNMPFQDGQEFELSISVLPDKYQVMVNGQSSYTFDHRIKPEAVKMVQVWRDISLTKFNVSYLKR
Experimental: In order to test the binding capacity of the scFvs to galectin-10, an ELISA binding assay was established. Briefly, a Maxisorp plate was coated with soluble galectin-10 (1 μg/mL), then blocked with casein, before being incubated with the periplasmic extract (dilution 1/5 in PBS) containing the scFv-Myc. Detection of the binder was carried out with an anti-Myc-HRP antibody. Absorbance was measured at 450 nm (reference at 620 nm) with Tecan instrument. A significant number of galectin-10 scFv binders were isolated after the second round of selection (45-87% of binders).

[2] = biological target: T2, human galectin-10-His (recombinant human galectin-10 with TEV-cleavable N-terminal His-tag) (human); assay: SPR Biacore T3000, scFv-hFc captured by anti-human Fc, galectin-10-His as analyte
T2 construct: SEC-MALLS: dimer in solution; also called Gal10-His; humanGal10-His
T2 chain: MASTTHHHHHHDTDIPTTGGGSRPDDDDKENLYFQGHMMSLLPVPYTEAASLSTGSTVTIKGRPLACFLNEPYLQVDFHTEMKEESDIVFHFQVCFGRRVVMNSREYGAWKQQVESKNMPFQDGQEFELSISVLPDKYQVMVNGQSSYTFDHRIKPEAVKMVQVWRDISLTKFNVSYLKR
Experimental: In order to determine the binding properties (on-rate/off-rate) of the scFv-human Fc panel, their binding capacity to galectin-10 was analyzed on Biacore T3000. For this purpose, a capture approach was set up. A CM5 Chip was coated with polyclonal anti-human Fc at 8000 RU, then a fixed concentration of the scFv-human Fc panel (1.5 μg/mL), diluted in HBS-EP pH7.4, were captured to reach a binding signal around 150 RU. Finally, a serial dilution of galectin-10-His (serial dilution, 1 over 2 from 5 μg/mL, 6 points of dilution) diluted in HBS-EP pH7.4 was injected. Raw data were analyzed via BIA evaluation software with a blank subtraction (4-3). The kd/KD and Rmax of each scFv-human Fc for galectin-10-His was determined using the Fit Kinetics simultaneous ka/kd/Binding with mass transfer/Local Rmax on BIA evaluation software.

[3] = biological target: T2, human galectin-10-His (recombinant …); assay: ELISA, scFv-hFc on coated galectin-10-His (0.2 ug/mL)
Experimental: In a similar setup to that used during the initial screening, the relative binding properties of the 12 scFv-human Fc clones were analyzed by ELISA. Briefly, a Maxisorp plate was coated with galectin-10-His at 0.2 μg/mL and blocked with casein, before being incubated with a serial dilution of the scFv-human Fc fusion molecules. After several washing steps, detection of the bound scFv-human Fc was carried out with an anti-human Fc-HRP antibody. Absorbance was measured at 450 nm (reference at 620 nm) with Tecan instrument. Finally, the raw data (OD values) were plotted on GraphPad Prism 7.01. The EC50 value of each compound was calculated with a non-linear regression (log(agonist) vs. response Variable slope (four parameters)).

[4] = biological target: T3, cynomolgus galectin-10-His, YRT isoform (cynomolgus); assay: ELISA, Gal10-His coated at 1 ug/mL, VHH titrated, anti-Myc-HRP
T3 construct: not shown: His tag
T3 chain: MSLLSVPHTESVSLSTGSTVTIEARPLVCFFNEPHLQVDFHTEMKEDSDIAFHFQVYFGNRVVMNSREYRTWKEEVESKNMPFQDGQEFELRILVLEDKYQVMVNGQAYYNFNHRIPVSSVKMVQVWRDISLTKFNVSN
Experimental: (§1) The binding capacity of the 15 VHH clones was analysed by ELISA. Briefly, a Maxisorp plate was coated overnight with human or cynomolgus WGS or YRT isoforms galectin-10-His at 1 μg/mL and blocked with PBS 1% casein, before being incubated with a serial dilution of the VHH (from 4 μM, dilution 1/3, 12 points of dilutions). […] Absorbance was measured at 450 nm (reference at 620 nm) with Tecan instrument. Finally, the raw data (OD values) were plotted on GraphPad Prism 7.01. […] As a positive control, clone 1D06 from the previous human specific panel was included.

[5] = biological target: T4, human galectin-10-His (human); assay: as above
T4 construct: Whether the last M of the tag is the start Met of galectin-10 is not clear; also called human Gal10-HIS; humanGal10-His
T4 chain: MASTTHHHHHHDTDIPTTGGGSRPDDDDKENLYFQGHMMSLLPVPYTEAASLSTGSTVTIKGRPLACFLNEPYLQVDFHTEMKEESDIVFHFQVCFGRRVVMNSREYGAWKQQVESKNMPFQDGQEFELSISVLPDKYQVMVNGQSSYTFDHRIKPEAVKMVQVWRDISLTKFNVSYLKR
Experimental: as §1

B1: scFv 5E12 (periplasmic extract, Myc-tagged) (scFv, not shown: small tags and cut ends)
scFv: QLQLVESGGGLVQPGGSLRLSCVASGFTFRNYPMTWVRQAPGKGPEWVSAINGGGDIPYYADSVKGRFTISRDNAKNTVYLQMDSLKPEDTAMYYCAKQKWGYDPRRTDFEFRGQGTQVTVSSGGGGSGGGGSGGGGSETVPTQSPSSVTASVGEKVTITCKSSQSVRIESNHKTYLNWYQQRPGRGPRLLIYDASSRESGIPDRFSGSGSTSDFTLTISSVQPEDAAVYYCQQAYAAPTFGQGTKLEIK
PERI-ELISA binding (OD values) [1]: 2.42 OD

B2: 5E12 scFv-human Fc (Fc fusion)
scFv: QLQLVESGGGLVQPGGSLRLSCVASGFTFRNYPMTWVRQAPGKGPEWVSAINGGGDIPYYADSVKGRFTISRDNAKNTVYLQMDSLKPEDTAMYYCAKQKWGYDPRRTDFEFRGQGTQVTVSSGGGGSGGGGSGGGGSETVPTQSPSSVTASVGEKVTITCKSSQSVRIESNHKTYLNWYQQRPGRGPRLLIYDASSRESGIPDRFSGSGSTSDFTLTISSVQPEDAAVYYCQQAYAAPTFGQGTKLEIK
notes: about 100 kDa on SDS-PAGE; also called 5E12 ScFv-hFc; not shown: CH2-CH3 constant domains of human IgG1 (vector pUPEX50)
Kd [2]: 4.73 nM | koff [2]: 0.00177 s⁻¹ | Bmax (OD values) [3]: 1.84 OD | EC50 [3]: 0.25 nM

B3: scFv 6A11 (periplasmic extract, Myc-tagged) (scFv, not shown: small tags and cut ends)
scFv: ELQLVESGGGLVQPGGSLRLSCSASGFTFGAYAMNWVRQAPGKGLEWVSGVNSGGGLTSYGESVKGRFTISRDNAKNTLYLQMNRLNPDDTAVYYCAKSKRGAVVAGTGDDYWGQGTQVTVSSGGGGSGGGGSGGGGSSSALTQPSAVSVSLGQTARITCQGGNFGRYYVSWYQQKPGQAPVLVIYKDSERPSGIPERFSGSSSGDTATLTISGAQAEDEADYYCQSGSSSDNAVFGGGTHLTVL
PERI-ELISA binding (OD values) [1]: 2.35 OD

B4: VHH clone 13E09 (VHH)
VHH: QVQVQESGGGLVQAGNSLRLSCAASGRTFSSYHMMWFRQAPGKEREFVAAIAWRGGTYCANSVKGRCTISRDNAKDTVYLQMNSLKPEDTAVYFCAASLRYVFDPSAMDYWGKGTLVTVSS
notes: Purified VHH-Myc-His from E. coli; not shown: Myc and His tags of the phagemid vector
Bmax (OD values) [4]: 3 OD | EC50 [4]: 66.9 nM | Bmax (OD values) [5]: 1.8 OD | EC50 [5]: 106 nM

B5: VHH clone 13C03 (VHH)
VHH: QVQLVESGGGLVQPGGSLRLSCAASGSIFSISRMGWYRQAPGKQRELVAIIFSDASTDYADSVKGRFTISRSNAKNTVYLQMNSLKPEDTAVYYCKSVLRAAGYGYFNQYWGQGTQVTVSS
notes: as for B4
Bmax (OD values) [5]: 2 OD | EC50 [5]: 30.6 nM

B6: scFv 6F05 (periplasmic extract, Myc-tagged) (scFv, not shown: small tags and cut ends)
scFv: QLQLVESGGGLVQPGGSLRLSCAASGFTFSSYAMSWVRQAPGKGLEWVSAINSGGGSTSYADSVKGRFTISRDNAKNTLYLQMNSLKPEDTAVYYCATPGDRLWYYRYDYWGQGTQVTVSSGGGGSGGGGSGGGGSQAGLTQPPSVSGTLGKAVTISCAGTSSDIGYGNYVSWYQQLPGTAPKLLIYKVSRRASGVPDRFSGSKSGNTASLSISGLQSEDEADYYCASYRYRNNVVFGGGTHLTVL
notes: also called 6F5
PERI-ELISA binding (OD values) [1]: 3.83 OD

B7: 1A12 scFv-human Fc (Fc fusion)
scFv: QVQLVESGGGLVQPGGSLRVSCAASGFTFSSYYMSWVRQAPGKGLEWVSAINSGGGSTYYADSVKGRFTISRDNAKNTLYLQMNSLKSEDTAVYYCVQNGGIWSFGSWGQGTQVTVSSGGGGSGGGGSGGGGSSSALTQPSAISVSLGQTARITCQGGNFGYYYVSWYQQKPGQAPVQVIYGDSNRPSGIPERFSGSSSGGTATLTISGAQAEDEADYYCLSYESSDYPVFGGGTHLTVL
notes: about 100 kDa on SDS-PAGE; also called 1A12 ScFv-hFc; not shown: CH2-CH3 constant domains of human IgG1 (vector pUPEX50)
Kd [2]: 11.7 nM | koff [2]: 0.00315 s⁻¹ | Bmax (OD values) [3]: 0.409 OD

B8: scFv 1A12 (periplasmic extract, Myc-tagged) (scFv, not shown: small tags and cut ends)
scFv: QVQLVESGGGLVQPGGSLRVSCAASGFTFSSYYMSWVRQAPGKGLEWVSAINSGGGSTYYADSVKGRFTISRDNAKNTLYLQMNSLKSEDTAVYYCVQNGGIWSFGSWGQGTQVTVSSGGGGSGGGGSGGGGSSSALTQPSAISVSLGQTARITCQGGNFGYYYVSWYQQKPGQAPVQVIYGDSNRPSGIPERFSGSSSGGTATLTISGAQAEDEADYYCLSYESSDYPVFGGGTHLTVL
PERI-ELISA binding (OD values) [1]: 2.13 OD

B9: scFv 2B11 (periplasmic extract, Myc-tagged) (scFv, not shown: small tags and cut ends)
scFv: QVQLQESGPGLVKPSQTLSLTCTVSGGSITTNYYYWSWIRQPPGKGLEWMGAIAYSGSTYYSPSLKSRTSISRDTSKNQFTLQLSSVTPEDTAVYYCARAPYGISREYDYWGQGTQVTVSSGGGGSGGGGSGGGGSHSAVTQPSAVSVSLGQTARITCQGGKFGRYYASWYQQKPGQAPVLVIYKDSERPSGIPERFSGSSSGDTATLSISGAQAEDEADYFCQSGRSSDNAVFGGGTHLTVL
PERI-ELISA binding (OD values) [1]: 3.79 OD

B10: scFv 6F11 (periplasmic extract, Myc-tagged) (scFv, not shown: small tags and cut ends)
scFv: QVQRQESGPGLVKPSQTLSVTCTVSGGSITTGPYSWSWIRQPPGKGLEWIGYIGYSGSTYYSPSLKSRTSISRDTSNNQFSLQLSSVTPEDTAVYYCARSRSSPTTFGMDYWGKGTLVTVSSGGGGSGGGGSGGGGSSSALTQPSAVSVSLGQTARITCQGGDFGRYYVAWYTQKPGQAPVLVIYQDSERPSGIPERFSGSSSGDTATLTISGAQAEDEAEYYCQSGISSDNIVFGGGTHLTVL
notes: also called 6F011
PERI-ELISA binding (OD values) [1]: 3.76 OD

B11: 3A03 scFv-human Fc (Fc fusion)
scFv: QVQLVESGGGLVQPGGSLRLSCATSGFTFSVYAMSWVRQAPGKGLEWVADINTSGDSTTYADSVKGRFTISRDNAKNTLYLQMNSLKPEDTAVYYCANRYTQERGQGTQVTVSSGGGGSGGGGSGGGGSDVVLTQTPGSLSVVPGEAASISCKPGRTLVHTDGRTYLYWLQQKPGQRPQLLIYQVSNRGSGVPDRFTGSGSGTDFTLKISGVKAEDAGVYYCAQATYYPLTFGSGTRLEIK
notes: about 100 kDa on SDS-PAGE; also called 3A03 ScFv-hFc; not shown: CH2-CH3 constant domains of human IgG1 (vector pUPEX50)
Kd [2]: 1.56 nM | koff [2]: 0.0111 s⁻¹ | Bmax (OD values) [3]: 1.81 OD | EC50 [3]: 0.06 nM

B12: VHH clone 13B06 (VHH)
VHH: QVQLVESGGGLVQAGGSLRLSCAASGRTFSTYSMAWFRQAPGKEREFVAAITRSGGNTYADSVKGRFTISRDNAKNTVTLQMNSLKPEDTAAYHCAAGGTYSFVPRSYNYWGQGTQVTVSS
notes: as for B4
Bmax (OD values) [4]: 2 OD | Bmax (OD values) [5]: 1 OD

B13: VHH clone 13C04 (VHH)
VHH: ELQVVESGGGLVQAGGSLRLSCAASGRTFSTYSMAWFRQAPGKEREFVAAITRSGGNTYADSVKGRFTISRDNAKNTVTLQMNSLKPEDTAAYHCAAGGTYSFVPRSYNYWGQGTQVTVSS
notes: as for B4
Bmax (OD values) [4]: 2.5 OD | Bmax (OD values) [5]: 1.1 OD

B14: scFv 2E11 (periplasmic extract, Myc-tagged) (scFv, not shown: small tags and cut ends)
scFv: EVQLVESGGGLVQPGGSLRLSCAASGFTFSSYAMSWVRQAPGKGLEWVSPINSGSDSASYVDSVKGRFTISRDNAKNTLYLQMNSLKPEDTAVYYCAKARTSVVAGGMDYWGKGTLVTVSSGGGGSGGGGSGGGGSQSALTQPSAVSVSLGQTARITCQGGKFGSYYVSWYQQKPGQAPVMVIYKDNERPSGIPERFSGSSSGSTSTLTISGAQAEDEGTYYCQSGSSSDNIVFGGGTELTVF
PERI-ELISA binding (OD values) [1]: 3.51 OD

Source: US20190367619A1 (ARGENX, published 2019)
